target: T1, Aβ42-GFP (Homo sapiens, UniProt P05067); assay: High-throughput sequencing of pSICLOPPS vectors isolated after bacterial sorting for enhanced Aβ42-GFP fluorescence; conditions: after the second round of bacterial sorting; relative to total TXXXR reads
T1 construct: a chimeric fusion of the human Aβ(1-42) peptide (Aβ42) with GFP; expressed in transfected cells; host or cells: E. coli BL21(DE3)
Method in brief: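 E. coli BL21(DE3) expressing Aβ42-GFP from the T7 promoter was co-transformed with cyclic peptide libraries (0.002% L-arabinose, 0.1 mM IPTG at OD600 ~0.5, 37° C). High-fluorescence cells were sorted over repeated rounds. Plasmid peptide-encoding regions were then sequenced by Ion Torrent, discarding sequences with stop codons.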

In order of falling “Reads/Total TXXXR reads (%)” value:
1. AβC5-255 (TTSRR; cyclic)  0.017%
2. AβC5-258 (TTSCR; cyclic)  0.016%
3. AβC5-260 (TTWTR; cyclic)  0.016%
4. AβC5-262 (TTSSR; cyclic)  0.015%
5. AβC5-263 (THLAR; cyclic)  0.015%
6. AβC5-264 (TSGAR; cyclic)  0.015%
7. AβC5-266 (TTLRR; cyclic)  0.014%
8. AβC5-270 (TATWR; cyclic)  0.014%
9. AβC5-272 (TCMWR; cyclic)  0.013%
10. AβC5-275 (TAHVR; cyclic)  0.013%
11. AβC5-276 (TSWAR; cyclic)  0.013%
12. AβC5-278 (TTWLR; cyclic)  0.013%
13. AβC5-291 (TTLDR; cyclic)  0.011%
14. AβC5-294 (TTPHR; cyclic)  0.011%
15. AβC5-298 (TTRGR; cyclic)  0.011%
16. AβC5-299 (TTVGR; cyclic)  0.011%
17. AβC5-301 (TTTRR; cyclic)  0.010%
18. AβC5-304 (TSINR; cyclic)  0.010%
19. AβC5-305 (TTADR; cyclic)  0.010%
20. AβC5-315 (TTSER; head-to-tail cyclic)  0.008%
21. AβC5-316 (TTCAR; head-to-tail cyclic)  0.008%
22. AβC5-317 (TTAWR; head-to-tail cyclic)  0.008%
23. AβC5-320 (TTVER; head-to-tail cyclic)  0.008%
24. AβC5-321 (TTTFR; head-to-tail cyclic)  0.008%
25. AβC5-323 (TAVDR; head-to-tail cyclic)  0.008%
26. AβC5-325 (TVWIR; head-to-tail cyclic)  0.008%
27. AβC5-329 (TTVRR; head-to-tail cyclic)  0.007%
28. AβC5-333 (THVRR; head-to-tail cyclic)  0.007%
29. AβC5-343 (TNLDR; head-to-tail cyclic)  0.007%
30. AβC5-344 (TTPGR; head-to-tail cyclic)  0.007%
31. AβC5-348 (TTLTR; head-to-tail cyclic)  0.006%
32. AβC5-355 (TATVR; head-to-tail cyclic)  0.006%
33. AβC5-359 (TAMWR; head-to-tail cyclic)  0.006%
34. AβC5-361 (TTKWR; head-to-tail cyclic)  0.006%
35. AβC5-362 (TTWDR; head-to-tail cyclic)  0.006%
36. AβC5-364 (TTMAR; head-to-tail cyclic)  0.006%
37. AβC5-365 (TTGGR; head-to-tail cyclic)  0.006%
38. AβC5-366 (TTMVR; head-to-tail cyclic)  0.006%

same assay, conditions: after the second round of bacterial sorting; relative to total pentapeptide reads

In order of falling “Reads/Total pentapeptide reads (%)” value:
1. AβC5-255 (TTSRR; cyclic)  0.008%
2. AβC5-258 (TTSCR; cyclic)  0.007%
3. AβC5-260 (TTWTR; cyclic)  0.007%
4. AβC5-262 (TTSSR; cyclic)  0.007%
5. AβC5-263 (THLAR; cyclic)  0.007%
6. AβC5-264 (TSGAR; cyclic)  0.007%
7. AβC5-266 (TTLRR; cyclic)  0.007%
8. AβC5-270 (TATWR; cyclic)  0.007%
9. AβC5-272 (TCMWR; cyclic)  0.006%
10. AβC5-275 (TAHVR; cyclic)  0.006%
11. AβC5-276 (TSWAR; cyclic)  0.006%
12. AβC5-278 (TTWLR; cyclic)  0.006%
13. AβC5-291 (TTLDR; cyclic)  0.005%
14. AβC5-294 (TTPHR; cyclic)  0.005%
15. AβC5-298 (TTRGR; cyclic)  0.005%
16. AβC5-299 (TTVGR; cyclic)  0.005%
17. AβC5-301 (TTTRR; cyclic)  0.005%
18. AβC5-304 (TSINR; cyclic)  0.004%
19. AβC5-305 (TTADR; cyclic)  0.004%
20. AβC5-315 (TTSER; head-to-tail cyclic)  0.004%
21. AβC5-316 (TTCAR; head-to-tail cyclic)  0.004%
22. AβC5-317 (TTAWR; head-to-tail cyclic)  0.004%
23. AβC5-320 (TTVER; head-to-tail cyclic)  0.004%
24. AβC5-321 (TTTFR; head-to-tail cyclic)  0.004%
25. AβC5-323 (TAVDR; head-to-tail cyclic)  0.004%
26. AβC5-325 (TVWIR; head-to-tail cyclic)  0.004%
27. AβC5-329 (TTVRR; head-to-tail cyclic)  0.003%
28. AβC5-333 (THVRR; head-to-tail cyclic)  0.003%
29. AβC5-343 (TNLDR; head-to-tail cyclic)  0.003%
30. AβC5-344 (TTPGR; head-to-tail cyclic)  0.003%
31. AβC5-348 (TTLTR; head-to-tail cyclic)  0.003%
32. AβC5-355 (TATVR; head-to-tail cyclic)  0.003%
33. AβC5-359 (TAMWR; head-to-tail cyclic)  0.003%
34. AβC5-361 (TTKWR; head-to-tail cyclic)  0.003%
35. AβC5-362 (TTWDR; head-to-tail cyclic)  0.003%
36. AβC5-364 (TTMAR; head-to-tail cyclic)  0.003%
37. AβC5-365 (TTGGR; head-to-tail cyclic)  0.003%
38. AβC5-366 (TTMVR; head-to-tail cyclic)  0.003%

same assay, conditions: after the second round of bacterial sorting; relative to total peptide reads

In order of rising “Reads/Total peptide reads (%)” value:
1. AβC5-359 (TAMWR; head-to-tail cyclic)  0.002%
2. AβC5-361 (TTKWR; head-to-tail cyclic)  0.002%
3. AβC5-362 (TTWDR; head-to-tail cyclic)  0.002%
4. AβC5-364 (TTMAR; head-to-tail cyclic)  0.002%
5. AβC5-365 (TTGGR; head-to-tail cyclic)  0.002%
6. AβC5-366 (TTMVR; head-to-tail cyclic)  0.002%
7. AβC5-315 (TTSER; head-to-tail cyclic)  0.003%
8. AβC5-316 (TTCAR; head-to-tail cyclic)  0.003%
9. AβC5-317 (TTAWR; head-to-tail cyclic)  0.003%
10. AβC5-320 (TTVER; head-to-tail cyclic)  0.003%
11. AβC5-321 (TTTFR; head-to-tail cyclic)  0.003%
12. AβC5-323 (TAVDR; head-to-tail cyclic)  0.003%
13. AβC5-325 (TVWIR; head-to-tail cyclic)  0.003%
14. AβC5-329 (TTVRR; head-to-tail cyclic)  0.003%
15. AβC5-333 (THVRR; head-to-tail cyclic)  0.003%
16. AβC5-343 (TNLDR; head-to-tail cyclic)  0.003%
17. AβC5-344 (TTPGR; head-to-tail cyclic)  0.003%
18. AβC5-348 (TTLTR; head-to-tail cyclic)  0.003%
19. AβC5-355 (TATVR; head-to-tail cyclic)  0.003%
20. AβC5-298 (TTRGR; cyclic)  0.004%
21. AβC5-299 (TTVGR; cyclic)  0.004%
22. AβC5-301 (TTTRR; cyclic)  0.004%
23. AβC5-304 (TSINR; cyclic)  0.004%
24. AβC5-305 (TTADR; cyclic)  0.004%
25. AβC5-275 (TAHVR; cyclic)  0.005%
26. AβC5-276 (TSWAR; cyclic)  0.005%
27. AβC5-278 (TTWLR; cyclic)  0.005%
28. AβC5-291 (TTLDR; cyclic)  0.005%
29. AβC5-294 (TTPHR; cyclic)  0.005%
30. AβC5-262 (TTSSR; cyclic)  0.006%
31. AβC5-263 (THLAR; cyclic)  0.006%
32. AβC5-264 (TSGAR; cyclic)  0.006%
33. AβC5-266 (TTLRR; cyclic)  0.006%
34. AβC5-270 (TATWR; cyclic)  0.006%
35. AβC5-272 (TCMWR; cyclic)  0.006%
36. AβC5-255 (TTSRR; cyclic)  0.007%
37. AβC5-258 (TTSCR; cyclic)  0.007%
38. AβC5-260 (TTWTR; cyclic)  0.007%

same assay, conditions: high-throughput sequencing of isolated pSICLOPPS-NuX1X2X3-X5 vectors after the second round of bacterial sorting for enhanced Aβ42-GFP fluorescence; selected cyclo-TXXXR pentapeptides

In order of falling Number of reads:
1. AβC5-255 (TTSRR; cyclic)  325
2. AβC5-258 (TTSCR; cyclic)  301
3. AβC5-260 (TTWTR; cyclic)  295
4. AβC5-262 (TTSSR; cyclic)  286
5. AβC5-263 (THLAR; cyclic)  284
6. AβC5-264 (TSGAR; cyclic)  282
7. AβC5-266 (TTLRR; cyclic)  274
8. AβC5-270 (TATWR; cyclic)  266
9. AβC5-272 (TCMWR; cyclic)  254
10. AβC5-275 (TAHVR; cyclic)  249
11. AβC5-276 (TSWAR; cyclic)  249
12. AβC5-278 (TTWLR; cyclic)  241
13. AβC5-291 (TTLDR; cyclic)  213
14. AβC5-294 (TTPHR; cyclic)  207
15. AβC5-298 (TTRGR; cyclic)  201
16. AβC5-299 (TTVGR; cyclic)  200
17. AβC5-301 (TTTRR; cyclic)  191
18. AβC5-304 (TSINR; cyclic)  182
19. AβC5-305 (TTADR; cyclic)  181
20. AβC5-315 (TTSER; head-to-tail cyclic)  158
21. AβC5-316 (TTCAR; head-to-tail cyclic)  157
22. AβC5-317 (TTAWR; head-to-tail cyclic)  156
23. AβC5-320 (TTVER; head-to-tail cyclic)  150
24. AβC5-321 (TTTFR; head-to-tail cyclic)  148
25. AβC5-323 (TAVDR; head-to-tail cyclic)  147
26. AβC5-325 (TVWIR; head-to-tail cyclic)  144
27. AβC5-329 (TTVRR; head-to-tail cyclic)  141
28. AβC5-333 (THVRR; head-to-tail cyclic)  137
29. AβC5-343 (TNLDR; head-to-tail cyclic)  125
30. AβC5-344 (TTPGR; head-to-tail cyclic)  125
31. AβC5-348 (TTLTR; head-to-tail cyclic)  119
32. AβC5-355 (TATVR; head-to-tail cyclic)  115
33. AβC5-359 (TAMWR; head-to-tail cyclic)  110
34. AβC5-361 (TTKWR; head-to-tail cyclic)  108
35. AβC5-362 (TTWDR; head-to-tail cyclic)  107
36. AβC5-364 (TTMAR; head-to-tail cyclic)  106
37. AβC5-365 (TTGGR; head-to-tail cyclic)  106
38. AβC5-366 (TTMVR; head-to-tail cyclic)  105

From patent US12559863B2, “Macrocyclic modulators of disease associated protein misfolding and aggregation” (RESQ BIOTECH, priority 2017, dated 2026)
